Results as given in US20220048967A1 (published 2022).
Numbered stars: 1 amine (or outer) side, 2 acyl side, 3 side chain; on linkers, the order of the positions; unused ones are H or OH. Square brackets hold non-standard residues; d marks the D form. Side chains are listed from the residue outwards. Ends that are not written are not given here. * marks the point of attachment. C18 diacid = O=C(O)CCCCCCCCCCCCCCCCC(=O)*; γGlu = O=C(O)[C@H](CCC(=O)[*:2])N[*:1]; AEEA = NCCOCCOCC(=O)O; Aib = CC(C)(N)C(=O)O

T1: human gastric inhibitory peptide receptor (GIPR) (human, UniProt P48546 22-466)
T1 sequence (looked up): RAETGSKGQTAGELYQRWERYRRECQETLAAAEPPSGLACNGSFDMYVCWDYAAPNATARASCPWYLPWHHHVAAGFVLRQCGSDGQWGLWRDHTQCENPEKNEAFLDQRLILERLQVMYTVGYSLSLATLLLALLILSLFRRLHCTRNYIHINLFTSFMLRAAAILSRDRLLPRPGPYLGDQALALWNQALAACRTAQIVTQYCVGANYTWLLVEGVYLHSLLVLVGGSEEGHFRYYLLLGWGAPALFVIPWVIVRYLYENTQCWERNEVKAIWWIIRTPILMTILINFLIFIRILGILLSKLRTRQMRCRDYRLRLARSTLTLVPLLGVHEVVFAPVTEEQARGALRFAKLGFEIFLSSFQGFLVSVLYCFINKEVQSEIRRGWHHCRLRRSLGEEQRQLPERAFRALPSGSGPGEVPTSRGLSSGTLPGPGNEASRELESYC


Legend:
[1] = target: T1, human gastric inhibitory peptide …; experiment: cell-based or functional assay
[2] = target: human GLP-1 receptor (GLP-1R) (human, UniProt P43220 24-463); experiment: cell-based or functional assay

| hGIPR cAMP EC50 ratio [1] | hGIPR cAMP Rel EC50 [1] | hGLP1R cAMP EC50 ratio [2] | hGLP1R cAMP Rel EC50 [2] | Binder |
| --- | --- | --- | --- | --- |
| 5.38 | 23.4 pM | 0.636 | 86.7 pM | YXEGTFTSDYSIXLDKKAQXAFIEYLIEGGPSSG (Aib2, αMeL13, (2-[2-(2-Amino-ethoxy)-ethoxy]-acetyl)2-(γ-Glu)-CO-(CH2)16-CO2H on K17, Aib20, C-terminal NH2) [Example 300] |
| 3.78 | 30.8 pM | 1.96 | 27.5 pM | YXEGTXTSDYSILLDKKAQXAFIEYLIEGGPSSG (Aib2, αMeF(2F)6, (2-[2-(2-Amino-ethoxy)-ethoxy]-acetyl)2-(γ-Glu)-CO-(CH2)16-CO2H on K17, Aib20, C-terminal NH2) [Example 302] |
| 4.11 | 34.6 pM | 1.61 | 44.1 pM | YXEGTXTSDYSILLDKKAQXAFIEYLIEGGPSSG (Aib2, αMeF6, (2-[2-(2-Amino-ethoxy)-ethoxy]-acetyl)2-(γ-Glu)-CO-(CH2)16-CO2H on K17, Aib20, C-terminal NH2) [Example 301] |
| 4.2 | 25.4 pM | 0.602 | 104 pM | YXEGTFTSDYSIXLDEKAQXAFIEYLIEGGPSSG (Aib2, αMeL13, (2-[2-(2-Amino-ethoxy)-ethoxy]-acetyl)2-(γ-Glu)-CO-(CH2)16-CO2H on K17, Aib20, C-terminal NH2) [Example 303] |

The next lines start with the binder.

| Binder | hGIPR cAMP EC50 ratio [1] | hGIPR cAMP Rel EC50 [1] | hGLP1R cAMP EC50 ratio [2] | hGLP1R cAMP Rel EC50 [2] |
| --- | --- | --- | --- | --- |
| Y[Aib]EGTFTSDYSILLDKK([AEEA-AEEA-γGlu-C18 diacid])AQ[Aib]EFIEYLIAGG-NH2 (N-terminus assumed; SMILES CC[C@H](C)[C@H](NC(=O)[C@H](CC(C)C)NC(=O)[C@H](Cc1ccc(O)cc1)NC(=O)[C@H](CCC(=O)O)NC(=O)[C@@H](NC(=O)[C@H](Cc1ccccc1)NC(=O)[C@H](CCC(=O)O)NC(=O)C(C)(C)NC(=O)[C@H](CCC(N)=O)NC(=O)[C@H](C)NC(=O)[C@H](CCCCNC(=O)COCCOCCNC(=O)COCCOCCNC(=O)CC[C@H](NC(=O)CCCCCCCCCCCCCCCCC(=O)O)C(=O)O)NC(=O)[C@H](CCCCN)NC(=O)[C@H](CC(=O)O)NC(=O)[C@H](CC(C)C)NC(=O)[C@H](CC(C)C)NC(=O)[C@@H](NC(=O)[C@H](CO)NC(=O)[C@H](Cc1ccc(O)cc1)NC(=O)[C@H](CC(=O)O)NC(=O)[C@H](CO)NC(=O)[C@@H](NC(=O)[C@H](Cc1ccccc1)NC(=O)[C@@H](NC(=O)CNC(=O)[C@H](CCC(=O)O)NC(=O)C(C)(C)NC(=O)[C@@H](N)Cc1ccc(O)cc1)[C@@H](C)O)[C@@H](C)O)[C@@H](C)CC)[C@@H](C)CC)C(=O)N[C@@H](C)C(=O)NCC(=O)NCC(N)=O) [Example 297] | 3 | 45.1 pM | 0.445 | 111 pM |
| Y[Aib]EGTFTSDYSILLDKK([AEEA-AEEA-γGlu-C18 diacid])AQ[Aib]AFVEYLIEGGPSSG-NH2 (N-terminus assumed; SMILES CC[C@H](C)[C@H](NC(=O)[C@H](CC(C)C)NC(=O)[C@H](Cc1ccc(O)cc1)NC(=O)[C@H](CCC(=O)O)NC(=O)[C@@H](NC(=O)[C@H](Cc1ccccc1)NC(=O)[C@H](C)NC(=O)C(C)(C)NC(=O)[C@H](CCC(N)=O)NC(=O)[C@H](C)NC(=O)[C@H](CCCCNC(=O)COCCOCCNC(=O)COCCOCCNC(=O)CC[C@H](NC(=O)CCCCCCCCCCCCCCCCC(=O)O)C(=O)O)NC(=O)[C@H](CCCCN)NC(=O)[C@H](CC(=O)O)NC(=O)[C@H](CC(C)C)NC(=O)[C@H](CC(C)C)NC(=O)[C@@H](NC(=O)[C@H](CO)NC(=O)[C@H](Cc1ccc(O)cc1)NC(=O)[C@H](CC(=O)O)NC(=O)[C@H](CO)NC(=O)[C@@H](NC(=O)[C@H](Cc1ccccc1)NC(=O)[C@@H](NC(=O)CNC(=O)[C@H](CCC(=O)O)NC(=O)C(C)(C)NC(=O)[C@@H](N)Cc1ccc(O)cc1)[C@@H](C)O)[C@@H](C)O)[C@@H](C)CC)C(C)C)C(=O)N[C@@H](CCC(=O)O)C(=O)NCC(=O)NCC(=O)N1CCC[C@H]1C(=O)N[C@@H](CO)C(=O)N[C@@H](CO)C(=O)NCC(N)=O) [Example 298] | 2.87 | 43 pM | 0.507 | 95.7 pM |
| Y[Aib]EGTFTSDYSILLDKK([AEEA-AEEA-γGlu-C18 diacid])AQHAFIEYLIEGG-NH2 (N-terminus assumed; SMILES CC[C@H](C)[C@H](NC(=O)[C@H](CC(C)C)NC(=O)[C@H](Cc1ccc(O)cc1)NC(=O)[C@H](CCC(=O)O)NC(=O)[C@@H](NC(=O)[C@H](Cc1ccccc1)NC(=O)[C@H](C)NC(=O)[C@H](Cc1c[nH]cn1)NC(=O)[C@H](CCC(N)=O)NC(=O)[C@H](C)NC(=O)[C@H](CCCCNC(=O)COCCOCCNC(=O)COCCOCCNC(=O)CC[C@H](NC(=O)CCCCCCCCCCCCCCCCC(=O)O)C(=O)O)NC(=O)[C@H](CCCCN)NC(=O)[C@H](CC(=O)O)NC(=O)[C@H](CC(C)C)NC(=O)[C@H](CC(C)C)NC(=O)[C@@H](NC(=O)[C@H](CO)NC(=O)[C@H](Cc1ccc(O)cc1)NC(=O)[C@H](CC(=O)O)NC(=O)[C@H](CO)NC(=O)[C@@H](NC(=O)[C@H](Cc1ccccc1)NC(=O)[C@@H](NC(=O)CNC(=O)[C@H](CCC(=O)O)NC(=O)C(C)(C)NC(=O)[C@@H](N)Cc1ccc(O)cc1)[C@@H](C)O)[C@@H](C)O)[C@@H](C)CC)[C@@H](C)CC)C(=O)N[C@@H](CCC(=O)O)C(=O)NCC(=O)NCC(N)=O) [Example 295] | 0.481 | 281 pM | 0.398 | 116 pM |
| Y[Aib]EGTFTSDYSILLDKK([AEEA-AEEA-γGlu-C18 diacid])AQ[Aib]AFLEYLIEGGPSSG-NH2 (N-terminus assumed; SMILES CC[C@H](C)[C@H](NC(=O)[C@H](CC(C)C)NC(=O)[C@H](Cc1ccc(O)cc1)NC(=O)[C@H](CCC(=O)O)NC(=O)[C@H](CC(C)C)NC(=O)[C@H](Cc1ccccc1)NC(=O)[C@H](C)NC(=O)C(C)(C)NC(=O)[C@H](CCC(N)=O)NC(=O)[C@H](C)NC(=O)[C@H](CCCCNC(=O)COCCOCCNC(=O)COCCOCCNC(=O)CC[C@H](NC(=O)CCCCCCCCCCCCCCCCC(=O)O)C(=O)O)NC(=O)[C@H](CCCCN)NC(=O)[C@H](CC(=O)O)NC(=O)[C@H](CC(C)C)NC(=O)[C@H](CC(C)C)NC(=O)[C@@H](NC(=O)[C@H](CO)NC(=O)[C@H](Cc1ccc(O)cc1)NC(=O)[C@H](CC(=O)O)NC(=O)[C@H](CO)NC(=O)[C@@H](NC(=O)[C@H](Cc1ccccc1)NC(=O)[C@@H](NC(=O)CNC(=O)[C@H](CCC(=O)O)NC(=O)C(C)(C)NC(=O)[C@@H](N)Cc1ccc(O)cc1)[C@@H](C)O)[C@@H](C)O)[C@@H](C)CC)C(=O)N[C@@H](CCC(=O)O)C(=O)NCC(=O)NCC(=O)N1CCC[C@H]1C(=O)N[C@@H](CO)C(=O)N[C@@H](CO)C(=O)NCC(N)=O) [Example 299] | 0.146 | 932 pM | 0.0244 | 2540 pM |
| Y[Aib]EGTFTSDYSILLDKK([AEEA-AEEA-γGlu-C18 diacid])AQQAFIEYLIEGG-NH2 (N-terminus assumed; SMILES CC[C@H](C)[C@H](NC(=O)[C@H](CC(C)C)NC(=O)[C@H](Cc1ccc(O)cc1)NC(=O)[C@H](CCC(=O)O)NC(=O)[C@@H](NC(=O)[C@H](Cc1ccccc1)NC(=O)[C@H](C)NC(=O)[C@H](CCC(N)=O)NC(=O)[C@H](CCC(N)=O)NC(=O)[C@H](C)NC(=O)[C@H](CCCCNC(=O)COCCOCCNC(=O)COCCOCCNC(=O)CC[C@H](NC(=O)CCCCCCCCCCCCCCCCC(=O)O)C(=O)O)NC(=O)[C@H](CCCCN)NC(=O)[C@H](CC(=O)O)NC(=O)[C@H](CC(C)C)NC(=O)[C@H](CC(C)C)NC(=O)[C@@H](NC(=O)[C@H](CO)NC(=O)[C@H](Cc1ccc(O)cc1)NC(=O)[C@H](CC(=O)O)NC(=O)[C@H](CO)NC(=O)[C@@H](NC(=O)[C@H](Cc1ccccc1)NC(=O)[C@@H](NC(=O)CNC(=O)[C@H](CCC(=O)O)NC(=O)C(C)(C)NC(=O)[C@@H](N)Cc1ccc(O)cc1)[C@@H](C)O)[C@@H](C)O)[C@@H](C)CC)[C@@H](C)CC)C(=O)N[C@@H](CCC(=O)O)C(=O)NCC(=O)NCC(N)=O) [Example 294] | 0.75 | 183 pM | 0.249 | 185 pM |
| Y[Aib]EGTFTSDYSILLDKK([AEEA-AEEA-γGlu-C18 diacid])AQKAFIEYLIEGGPSSG-NH2 (N-terminus assumed; SMILES CC[C@H](C)[C@H](NC(=O)[C@H](CC(C)C)NC(=O)[C@H](Cc1ccc(O)cc1)NC(=O)[C@H](CCC(=O)O)NC(=O)[C@@H](NC(=O)[C@H](Cc1ccccc1)NC(=O)[C@H](C)NC(=O)[C@H](CCCCN)NC(=O)[C@H](CCC(N)=O)NC(=O)[C@H](C)NC(=O)[C@H](CCCCNC(=O)COCCOCCNC(=O)COCCOCCNC(=O)CC[C@H](NC(=O)CCCCCCCCCCCCCCCCC(=O)O)C(=O)O)NC(=O)[C@H](CCCCN)NC(=O)[C@H](CC(=O)O)NC(=O)[C@H](CC(C)C)NC(=O)[C@H](CC(C)C)NC(=O)[C@@H](NC(=O)[C@H](CO)NC(=O)[C@H](Cc1ccc(O)cc1)NC(=O)[C@H](CC(=O)O)NC(=O)[C@H](CO)NC(=O)[C@@H](NC(=O)[C@H](Cc1ccccc1)NC(=O)[C@@H](NC(=O)CNC(=O)[C@H](CCC(=O)O)NC(=O)C(C)(C)NC(=O)[C@@H](N)Cc1ccc(O)cc1)[C@@H](C)O)[C@@H](C)O)[C@@H](C)CC)[C@@H](C)CC)C(=O)N[C@@H](CCC(=O)O)C(=O)NCC(=O)NCC(=O)N1CCC[C@H]1C(=O)N[C@@H](CO)C(=O)N[C@@H](CO)C(=O)NCC(N)=O) [Example 296] | 0.564 | 198 pM | 0.82 | 86.7 pM |
